Source: patent publication US20250210128A1 (ECOLE POLYTECHNIQUE FEDERALE DE LAUSANNE EPFL, published 2025)
No end group written: not given here.

What was measured:
Assay in all cases: cell-based or functional assay
Cdes2 CXCR4 design = Cdes2 CXCR4 design (human)
[1] = target: CLdes CXCR4 sensor (Cdes2 design combined with H113N) (human)
[2] = target: Ldes CXCR4 (library-selected combination receptor variant) (human)

potency in G-coupling (Gi BRET) (Cdes2 CXCR4 design): 3.2 fold over WT
potency in calcium mobilization (Cdes2 CXCR4 design): 3.1 fold over WT
Gi response (potency/sensitivity) [1]: > 9 fold over WT
Gi potency [2]: ~11 fold over CXCR4 WT scaffold
Binder: KPVSLSYRCPCRFFESH-NH2 (cysteine pairing not given here) [CXCL12 1-17 peptide, wild-type (17 N-terminal residues of CXCL12)]
